Experimental data as given in patent US20230372526A1, “PREPARATION METHOD FOR BIS-S[…] ANTIBODY-DRUG CONJUGATE” (MABWELL (SHANGHAI) BIOSCIENCE CO., LTD., priority 2020, published 2023).
*1 amine or outer side, *2 acyl side, *3 side chain or, on linkers, in order; H or OH if unused. Where a SMILES comes first, the peptide text is derived from it. [ ]: non-standard residue; d: D form. The star is where a group is joined. ξ: configuration not given here. Dil(5ξ) = CCC(C)[C@@H]([C@@H](CC(=O)[*:2])OC)N(C)[*:1]; Dolaproine = CO[C@@H]([C@@H]1CCCN1)[C@@H](C)C(=O)O; Hexanoyl(6-maleimido) = O=C1C=CC(=O)N1CCCCCC(=O)*; PABC = O=C(OCc1ccc(N[*:1])cc1)[*:2]; X1 = C[C@@H](N*)[C@@H](O)c1ccccc1; Cit = NC(=O)NCCC[C@H](N)C(=O)O; NMeV = CN[C@H](C(=O)O)C(C)C

Assay: Hydrolysis of Pertuzumab conjugated samples obtained using different small molecule compounds, hydrolysis percentage by Native MS
Format: physicochemical
Settings: for hydrolysis speed of conjugated samples (in words): hydrolysis systems A-D, pH 7.8, summary of Table 3-3; for hydrolysis of conjugated samples (in words) / 6 h hydrolysis percentage / 18 h hydrolysis percentage: 50 mM PB pH 7.8, 35° C.; for hydrolysis of conjugated samples (in words): summary of Table 3-2
Protocol: The analysis conditions were as follows: • Capillary activation: the capillary was rinsed with 0.1 mol/L sodium hydroxide for 10 min, 0.1 mol/L hydrochloric acid for 5 min and water for injection for 2 min respectively at 20 psi; and then rinsed with SDS-MW-Gel Buffer for 10 min at 70 psi; afterwards, pre-separation was performed for 10 min at 20 psi, at a column temperature of 25° C. and a voltage of −15 kv. The program was run: at 70 psi, the capillary was rinsed with 0.1 mol/L sodium hydroxide for 3 min, 0.1 mol/L hydrochloric acid for 1 min and water for injection for 1 min respectively; then the gel was poured for 10 min, the sample was loaded for 40 s at −5 kv, and the separation program was run ([…], 20 psi). The column temperature was set to 25° C., the voltage for separation was set to −15 kv, and the separation was performed for 40 min. • (4) Size exclusion chromatography (SEC-HPLC): • Sample treatment: the sample was diluted to 2.0-3.0 mg/ml with the mobile phase, and then was centrifuged at 12000 rpm for 10 min; and the supernatant was taken for analysis. • Chromatographic column: TOSOH, TSKgel G3000SWXL, 5 μm, 7.8 mm×300 mm; • Mobile phase: 100 mM PB+200 mM arginine hydrochloride, 5% isopropanol (pH 6.8); • Flow rate: 0.6 mL/min; • Detection wavelength: 280 nm; • Column temperature: 30° C.; • Loading volume: 10 uL; • Elution gradient: isocratic elution. • (5) Native MS: • Chromatographic column: ACQUITY UPLC Protein BEH SEC 200A (1.7 μm, 2.1 mm×150 mm); • Mobile phase: 50 mM ammonium acetate; • Running time: 12 min; • Flow rate: 0.065 mL/min; • Loading volume: 2 μL; • Column temperature: 30° C.; • Detection wavelength: 280 nm; • Capillary: 3.0 kV; • Cone voltage: 140 V; • Source offset: 80 V; • Source temperature: 125° C.; • Desolvation temperature: 250° C.; • Desolvation gas flow: 600 L/h. • (6) LC-MS:
Pertuzumab was reduced and conjugated as described in section a in Example 2. Conjugated samples obtained using different small molecule compounds were subjected to hydrolysis at 35° C. for a time period in the range of 3-18 hours, in 50 mM sodium dihydrogen phosphate-disodium hydrogen phosphate buffer, pH 7.8. The hydrolysis systems were sampled at different time points, and detected by Native MS.
Pertuzumab was reduced and conjugated as described in section a in Example 2. Conjugated samples obtained using different small molecule compounds were displaced to different hydrolysis solution systems (A: 50 mM sodium dihydrogen phosphate-disodium hydrogen phosphate buffer, pH 7.8; B: 50 mM sodium dihydrogen phosphate-disodium hydrogen phosphate buffer+3% arginine, pH 7.8; C: 50 mM potassium dihydrogen phosphate-dipotassium hydrogen phosphate buffer, pH 7.8; and D: 50 mM tromethamine-hydrochloric acid buffer, pH 7.8) for hydrolysis. Then the hydrolysis systems were sampled at different time points, and detected by Native MS.

[1] = hydrolysis system A: 50 mM sodium dihydrogen phosphate-disodium hydrogen phosphate buffer, pH 7.8
[2] = hydrolysis system B: 50 mM sodium phosphate buffer+3% arginine, pH 7.8
[3] = hydrolysis system C: 50 mM potassium dihydrogen phosphate-dipotassium hydrogen phosphate buffer, pH 7.8
[4] = hydrolysis system D: 50 mM tromethamine-hydrochloric acid buffer, pH 7.8
[5] = Pertuzumab conjugate, Native MS
[6] = Pertuzumab conjugate, 50 mM sodium dihydrogen phosphate-disodium hydrogen phosphate buffer, pH 7.8, 35° C., Native MS

Structure (SMILES) | 1 h hydrolysis percentage [1] [%] | 3 h hydrolysis percentage [1] [%] | 1 h hydrolysis percentage [2] [%] | 3 h hydrolysis percentage [2] [%] | 1 h hydrolysis percentage [3] [%] | 3 h hydrolysis percentage [3] [%] | 1 h hydrolysis percentage [4] [%] | 3 h hydrolysis percentage [4] [%] | hydrolysis speed of conjugated samples (in words) | hydrolysis of conjugated samples (in words) | 6 h hydrolysis percentage [5] [%] | 18 h hydrolysis percentage [5] [%] | 3 h hydrolysis percentage [6] [%]
CCC(C)[C@@H]([C@@H](CC(=O)N1CCC[C@H]1[C@H](OC)[C@@H](C)C(=O)N[C@H](C)[C@@H](O)c1ccccc1)OC)N(C)C(=O)[C@@H](NC(=O)[C@H](C(C)C)N(C)C(=O)OCc1ccc(NC(=O)[C@H](CCCNC(N)=O)NC(=O)[C@@H](NC(=O)COCCOCCOCCOc2c(F)cc(N3C(=O)C(Sc4ccccc4)=C(Sc4ccccc4)C3=O)cc2F)C(C)C)cc1)C(C)C (stereo partly shown) [A-3] | 89.31 | 99.32 | 93.48 | 99.41 | 92.52 | 99.70 | 90.33 | 99.31 | hydrolyzed rapidly in all above buffers | – | – | – | –
CCC(C)[C@@H]([C@@H](CC(=O)N1CCC[C@H]1[C@H](OC)[C@@H](C)C(=O)N[C@H](C)[C@@H](O)c1ccccc1)OC)N(C)C(=O)[C@@H](NC(=O)[C@H](C(C)C)N(C)C(=O)OCc1ccc(NC(=O)[C@H](CCCNC(N)=O)NC(=O)[C@@H](NC(=O)COCCOCCOCCOc2ccc(N3C(=O)C(Sc4ccccc4)=C(Sc4ccccc4)C3=O)c(C(F)(F)F)c2)C(C)C)cc1)C(C)C (stereo partly shown) [A-4] | 15.65 | 25.99 | 18.17 | 35.23 | 14.98 | 26.13 | 14.56 | 25.32 | required more time for being hydrolyzed | relatively low percentage of hydrolysis | 38.49 | 53.46 | 25.99
CCC(C)[C@@H]([C@@H](CC(=O)N1CCC[C@H]1[C@H](OC)[C@@H](C)C(=O)N[C@H](C)[C@@H](O)c1ccccc1)OC)N(C)C(=O)[C@@H](NC(=O)[C@H](C(C)C)N(C)C(=O)OCc1ccc(NC(=O)[C@H](CCCNC(N)=O)NC(=O)[C@@H](NC(=O)COCCOCCOCCOc2c(F)cc(N3C(=O)C(Sc4ccc(C(=O)N5CCOCC5)cc4)=C(Sc4ccc(C(=O)N5CCOCC5)cc4)C3=O)cc2F)C(C)C)cc1)C(C)C (stereo partly shown) [C-3] | 90.31 | 99.56 | 97.52 | 99.41 | 90.55 | 99.70 | 88.36 | 99.34 | hydrolyzed rapidly in all above buffers | hydrolyzed all most completely within 3 hours or 6 hours | 99.56 | – | 98.31
CCC(C)[C@@H]([C@@H](CC(=O)N1CCC[C@H]1[C@H](OC)[C@@H](C)C(=O)N[C@H](C)[C@@H](O)c1ccccc1)OC)N(C)C(=O)[C@@H](NC(=O)[C@H](C(C)C)N(C)C(=O)OCc1ccc(NC(=O)[C@H](CCCNC(N)=O)NC(=O)[C@@H](NC(=O)COCCOCCOCCOc2ccc(N3C(=O)C(Sc4ccc(C(=O)NC)cc4)=C(Sc4ccc(C(=O)NC)cc4)C3=O)cc2OC)C(C)C)cc1)C(C)C (stereo partly shown) [B-7] | 15.83 | 34.10 | 26.12 | 51.25 | 15.12 | 35.12 | 16.62 | 36.43 | required more time for being hydrolyzed | relatively low percentage of hydrolysis | 54.71 | 76.15 | 34.10
CCC(C)[C@@H]([C@@H](CC(=O)N1CCC[C@H]1[C@H](OC)[C@@H](C)C(=O)N[C@H](C)[C@@H](O)c1ccccc1)OC)N(C)C(=O)[C@@H](NC(=O)[C@H](C(C)C)N(C)C(=O)OCc1ccc(NC(=O)[C@H](CCCNC(N)=O)NC(=O)[C@@H](NC(=O)COCCOCCOCCOc2ccc(N3C(=O)C(Sc4ccccc4)=C(Sc4ccccc4)C3=O)cn2)C(C)C)cc1)C(C)C (stereo partly shown) [A-5] | – | – | – | – | – | – | – | – | – | – | 16.76 | 28.81 | 7.29
CCC(C)[C@@H]([C@@H](CC(=O)N1CCC[C@H]1[C@H](OC)[C@@H](C)C(=O)N[C@H](C)[C@@H](O)c1ccccc1)OC)N(C)C(=O)[C@@H](NC(=O)[C@H](C(C)C)N(C)C(=O)OCc1ccc(NC(=O)[C@H](CCCNC(N)=O)NC(=O)[C@@H](NC(=O)COCCOCCOCCOc2c(OC)cc(N3C(=O)C(Sc4ccccc4)=C(Sc4ccccc4)C3=O)cc2OC)C(C)C)cc1)C(C)C (stereo partly shown) [A-2] | – | – | – | – | – | – | – | – | – | relatively low percentage of hydrolysis | 30.33 | 48.43 | 17.85
CCC(C)[C@@H]([C@@H](CC(=O)N1CCC[C@H]1[C@H](OC)[C@@H](C)C(=O)N[C@H](C)[C@@H](O)c1ccccc1)OC)N(C)C(=O)[C@@H](NC(=O)[C@H](C(C)C)N(C)C(=O)OCc1ccc(NC(=O)[C@H](CCCNC(N)=O)NC(=O)[C@@H](NC(=O)CCCCCN2C(=O)C=CC2=O)C(C)C)cc1)C(C)C (stereo partly drawn) [D-1] ({Hexanoyl(6-maleimido)}-V[Cit][PABC][NMeV]V[Dil(5ξ)][Dolaproine]-X1) | – | – | – | – | – | – | – | – | – | – | 7.67 | 21.44 | 4.74
CCC(C)[C@@H]([C@@H](CC(=O)N1CCC[C@H]1[C@H](OC)[C@@H](C)C(=O)N[C@H](C)[C@@H](O)c1ccccc1)OC)N(C)C(=O)[C@@H](NC(=O)[C@H](C(C)C)N(C)C(=O)OCc1ccc(NC(=O)[C@H](CCCNC(N)=O)NC(=O)[C@@H](NC(=O)COCCOCCOCCOc2ccc(N3C(=O)C(Sc4ccc(C(=O)N5CCOCC5)cc4)=C(Sc4ccc(C(=O)N5CCOCC5)cc4)C3=O)cc2)C(C)C)cc1)C(C)C (stereo partly shown) [C-1] | 85.31 | 99.56 | 94.52 | 99.87 | 87.52 | 99.70 | 84.78 | 99.79 | hydrolyzed rapidly in all above buffers | hydrolyzed all most completely within 3 hours or 6 hours | 98.25 | – | 79.08
CCC(C)[C@@H]([C@@H](CC(=O)N1CCC[C@H]1[C@H](OC)[C@@H](C)C(=O)N[C@H](C)[C@@H](O)c1ccccc1)OC)N(C)C(=O)[C@@H](NC(=O)[C@H](C(C)C)N(C)C(=O)OCc1ccc(NC(=O)[C@H](CCCNC(N)=O)NC(=O)[C@@H](NC(=O)COCCOCCOCCOc2ccc(N3C(=O)C(Sc4ccc(C(=O)NC)cc4)=C(Sc4ccc(C(=O)NC)cc4)C3=O)cc2C(F)(F)F)C(C)C)cc1)C(C)C (stereo partly shown) [B-6] | – | – | – | – | – | – | – | – | – | relatively low percentage of hydrolysis | 33.32 | 47.60 | 22.86
